PMC12123462, “Novel Click Coupling Chemistry to Explore Glycan Recognition” (ACS Central Science, 2025)

Substrate: CC(=O)N[C@H]1[C@H]([C@H](O)[C@H](O)CO)O[C@](OP(=O)(O)OC[C@H]2O[C@@H](n3ccc(N)nc3=O)[C@H](O)[C@@H]2O)(C(=O)O)C[C@@H]1O
Assay: neoglycoprotein ELISA, product detected with APDye-532 SNA
Type: biochemical, Homo sapiens
Conditions: acceptor BSA-LNnT immobilised (250 ng/well), MES pH 6.5, 37 °C, 2 h
Source text: neoglycoprotein ELISA, product detected with APDye-532 SNA on recombinant human ST6Gal1 | K m of CMP-Sia for the recombinant human ST6Gal1

B1: recombinant human ST6Gal1 (Homo sapiens) (protein)
chain: KEKKKGSYYDSFKLQTKEFQVLKSLGKLAMGSDSQSVSSSSTQDPHRGRQTLGSLRGLAKAKPEASFQVWNKDSSSKNLIPRLQKIWKNYLSMNKYKVSYKGPGPGIKFSAEALRCHLRDHVNVSMVEVTDFPFNTSEWEGYLPKESIRTKAGPWGRCAVVSSAGSLKSSQLGREIDDHDAVLRFNGAPTANFQQDVGTKTTIRLMNSQLVTTEKRFLKDSLYNEGILIVWDPSVYHSDIPKWYQNPDYNFFNNYKTYRKLHPNQPFYILKPQMPWELWDILQEISPEEIQPNPPSSGMLGIIIMMTLCDQVDIYEFLPSKRKTDVCYYYQKFFDSACTMGAYHPLLYEKNLVKHLNQGTDEDIYLLGKATLPGFRTIHC
notes: recombinant
  Km: 141.4 µM
